Assay results reported in patent US20260167959A1, “APTAZYME-BASED REGULATABLE GENE EXPRESSION SYSTEMS” (REJUVENATE BIO INC, priority 2022, published 2026).

B1: RA441 (nucleic acid)
DNA: GCGCCCGGAATACCAGCATCGTCTTGATGCCCTTGGAAGTCCGGGTCCTGGATTCGCGGAAACGCGTACATCCAGCTGACGAGTCCCAAATAGGACGAAACGCGC
modifications: expressed or natural sequence
B2: RA453 (nucleic acid)
DNA: GCGCGTCCTGGATTCGCGGAAACGCGTACATCCAGCTGACGAGTCCCAAATAGGACGAAACAGAATACCAGCATCGTCTTGATGCCCTTGGAAGTCTGCGC
modifications: expressed or natural sequence
B3: RA439 (nucleic acid)
DNA: GCGCGTGAGAATACCAGCATCGTCTTGATGCCCTTGGAAGTCTCCCTGGATTCGCGGAAACGCGTACATCCAGCTGACGAGTCCCAAATAGGACGAAACGCGC
modifications: expressed or natural sequence
B4: RA437 (nucleic acid)
DNA: GCGCGTCCTGGATTCGCGGAAACGCGTACATCCAGCTGACGAGTCCCAAGAATACCAGCATCGTCTTGATGCCCTTGGAAGTCTAATAGGACGAAACGCGC
modifications: expressed or natural sequence
B5: RA446 (nucleic acid)
DNA: GCGCGTCCTGGATTCCGGAATACCAGCATCGTCTTGATGCCCTTGGAAGTCCGGCGGAAACGCGTACATCCAGCTGACGAGTCCCAAATAGGACGAAACGCGC
modifications: expressed or natural sequence
B6: RA451 (nucleic acid)
DNA: GCGCGTCCTGGATTCGCGGAAGAATACCAGCATCGTCTTGATGCCCTTGGAAGTCTAACGCGTACATCCAGCTGACGAGTCCCAAATAGGACGAAACGCGC
modifications: expressed or natural sequence
B7: RA444 (nucleic acid)
DNA: GCGCGTCCCGGAATACCAGCATCGTCTTGATGCCCTTGGAAGTCCGGCTGGATTCGCGGAAACGCGTACATCCAGCTGACGAGTCCCAAATAGGACGAAACGCGC
modifications: expressed or natural sequence
B8: RA450 (nucleic acid)
DNA: GCGCGTCCTGGATTCGCGGAAACGCGTACATCCAGCTGACGAGTCCCAAATAGGACGAAACCCGGAATACCAGCATCGTCTTGATGCCCTTGGAAGTCCGGGCGC
modifications: expressed or natural sequence
B9: RA456 (nucleic acid)
DNA: GCGCGTCCTGGATTCGCGGAAACGCGTACATCCAGCTGACGAGTCCCAAATACCGGAATACCAGCATCGTCTTGATGCCCTTGGAAGTCCGGGGACGAAACGCGC
modifications: expressed or natural sequence
B10: RA445 (nucleic acid)
DNA: GCGCGTCGAGAATACCAGCATCGTCTTGATGCCCTTGGAAGTCTCCTGGATTCGCGGAAACGCGTACATCCAGCTGACGAGTCCCAAATAGGACGAAACGCGC
modifications: expressed or natural sequence
B11: RA442 (nucleic acid)
DNA: GCGCGTCCTGGATTCGCGGAAACGCGTACATCCGGAATACCAGCATCGTCTTGATGCCCTTGGAAGTCCGCAGCTGACGAGTCCCAAATAGGACGAAACGCGC
modifications: expressed or natural sequence
B12: RA458 (nucleic acid)
DNA: GCGCGTCCTGGATTCGCGGAAACGCGTACATCCAGCTGACGAGTCCCAAATAGGACGAACCGGAATACCAGCATCGTCTTGATGCCCTTGGAAGTCCGGACGCGC
modifications: expressed or natural sequence
B13: RA455 (nucleic acid)
DNA: GCGCGTCCTGGATTCGCGGAAACGCGTACATCCAGCTGACGAGTCCCCGGAATACCAGCATCGTCTTGATGCCCTTGGAAGTCCGGCAAATAGGACGAAACGCGC
modifications: expressed or natural sequence
B14: RA443 (nucleic acid)
DNA: GCGCGTCCTGGATTCGCGGAAACGCGTACATCCAGCTGACGAGTCCCAAATAGGACGGAATACCAGCATCGTCTTGATGCCCTTGGAAGTCCGCGAAACGCGC
modifications: expressed or natural sequence
B15: RA459 (nucleic acid)
DNA: GCGCGTCCTGGATTCGCGGAAACGCGTACATCCAGCTGACGAGTCCCAAATAGGACGAAGGAATACCAGCATCGTCTTGATGCCCTTGGAAGTCCACGCGC
modifications: expressed or natural sequence
B16: RA449 (nucleic acid)
DNA: GCGCGTCCTGGATTCGCGGAAACGCGTACATCCAGCTGACGAGTCCCAAATAGGACGAAACGCGAGTGATACCAGCATCGTCTTGATGCCCTTGGCAGCACTC
modifications: expressed or natural sequence
B17: RA452 (nucleic acid)
DNA: GCGCGTCCTGGAGAATACCAGCATCGTCTTGATGCCCTTGGAAGTCTATTCGCGGAAACGCGTACATCCAGCTGACGAGTCCCAAATAGGACGAAACGCGC
modifications: expressed or natural sequence
B18: RA460 (nucleic acid)
DNA: GCGCGTCCTGGATTCGCAGTGATACCAGCATCGTCTTGATGCCCTTGGCAGCACTGGAAACGCGTACATCCAGCTGACGAGTCCCAAATAGGACGAAACGCGC
modifications: expressed or natural sequence
B19: RA438 (nucleic acid)
DNA: GCGCGTCCTGGATTCGCGGAAACGCGTACATCCAGCTGACGAGTCCCAAATAGGACGCGGAATACCAGCATCGTCTTGATGCCCTTGGAAGTCCGAAACGCGC
modifications: expressed or natural sequence
B20: RA440 (nucleic acid)
DNA: GCGCGTCCTGGATTCGCGGAAACGCGTACATCCAGCTGACGAGTCCCAAATAGGACGAAACGCCGGAATACCAGCATCGTCTTGATGCCCTTGGAAGTCCGGC
modifications: expressed or natural sequence
B21: RA448 (nucleic acid)
DNA: GCGCGCGGAATACCAGCATCGTCTTGATGCCCTTGGAAGTCCGTCCTGGATTCGCGGAAACGCGTACATCCAGCTGACGAGTCCCAAATAGGACGAAACGCGC
modifications: expressed or natural sequence
B22: RA447 (nucleic acid)
DNA: GCGCGTCCTGGATTCGCGGAAACGCGTACATCCAGCTGACGAGTCCGGAATACCAGCATCGTCTTGATGCCCTTGGAAGTCCCAAATAGGACGAAACGCGC
modifications: expressed or natural sequence
B23: RA454 (nucleic acid)
DNA: GCGCGTCCTGGATTCGCGGAAACGCGTACATCCAGCTGACGAGTCCAGAATACCAGCATCGTCTTGATGCCCTTGGAAGTCTCAAATAGGACGAAACGCGC
modifications: expressed or natural sequence
B24: RA457 (nucleic acid)
DNA: GCGCGTCCTGGATTCGCGGAAACGCGTACATCCAGCTGACGAGTCCCAAATAGGACGAAGTGATACCAGCATCGTCTTGATGCCCTTGGCAGCACTAACGCGC
modifications: expressed or natural sequence
B25: RA044 (nucleic acid)
DNA: GCGGAGAATACCAGCATCGTCTTGATGCCCTTGGAAGTCTCCGTCCTGGATTCGCGGAAACGCGTACATCCAGCTGACGAGTCCCAAATAGGACGAAACGCGC
modifications: expressed or natural sequence
B26: RA045 (nucleic acid)
DNA: GAGAATACCAGCATCGTCTTGATGCCCTTGGAAGTCTCGCGCGTCCTGGATTCGCGGAAACGCGTACATCCAGCTGACGAGTCCCAAATAGGACGAAACGCGC
modifications: expressed or natural sequence
B27: RA043 (nucleic acid)
DNA: GCGCGTCCTCGAGAATACCAGCATCGTCTTGATGCCCTTGGAAGTCTCGGGATTCGCGGAAACGCGTACATCCAGCTGACGAGTCCCAAATAGGACGAAACGCGC
modifications: expressed or natural sequence

Each molecule was assayed on Renilla luciferase RNA (assay: Barcoded aptazyme variant library screen: un-cleaved Renilla luciferase RNA by barcode read counts, HEK293-T cells). Details: un-cleaved Renilla luciferase RNA by barcode read counts; with 1 mM theophylline (ON) over without theophylline (OFF); HEK293-T cells; triplicate.
Assay type: cell-based
How it was run: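 Aptazyme variants (seven theophylline aptamers inserted after each T3H48 ribozyme nucleotide, 9-nt barcoded) cloned into the 3′ UTR of Renilla luciferase in psiCHECK-2; cells cultured ± theophylline, in triplicate. RNA and DNA barcodes amplified and sequenced; normalized read counts gave un-cleaved RNA fraction and ON/OFF fold-change.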

For B1, which “Fold change in RNA expression between the ON state and the OFF state” value (shortened to “Fold change”) is on record?
Its value is 0.6.

For B2, which “Fold change” value is on record?
Its value is 0.5.

Which “Fold change” value does the source give for B3 here?
Its value is 0.6.

With B4 as the molecule, how does the “Fold change” value read?
The value was 0.6.

B5 was tested. Which “Fold change” value did it give?
The value was 0.5.

With B6 as the molecule, how does the “Fold change” value read?
The value was 0.5.

B7 was tested. Which “Fold change” value did it give?
Its value is 0.6.

For B8, which “Fold change” value is on record?
Its value is 0.5.

For B9, which “Fold change” value is on record?
The value was 0.5.

How did the “Fold change” value turn out when B10 was run?
Its value is 0.5.

For B11, which “Fold change” value is on record?
Its value is 0.6.

With B12 as the molecule, how does the “Fold change” value read?
Its value is 0.5.

How did the “Fold change” value turn out when B13 was run?
The value was 0.5.

With B14 as the molecule, how does the “Fold change” value read?
Its value is 0.6.

Which “Fold change” value does the source give for B15 here?
Its value is 0.5.

With B16 as the molecule, how does the “Fold change” value read?
Its value is 0.5.

With B17 as the molecule, how does the “Fold change” value read?
Its value is 0.5.

For B18, which “Fold change” value is on record?
Its value is 0.5.

With B19 as the molecule, how does the “Fold change” value read?
Its value is 0.6.

B20 was tested. Which “Fold change” value did it give?
The value was 0.6.

B21 was tested. Which “Fold change” value did it give?
Its value is 0.5.

For B22, which “Fold change” value is on record?
Its value is 0.5.

B23 was tested. Which “Fold change” value did it give?
Its value is 0.5.

For B24, which “Fold change” value is on record?
Its value is 0.5.

Same assay, conditions: un-cleaved Renilla luciferase RNA, HEK293-T cells cultured with 1 mM theophylline (ON) over without theophylline (OFF); barcode read counts, triplicate

Which “Fold change” value does the source give for B25 here?
Its value is 2.1 fold.

Which “Fold change” value does the source give for B26 here?
The value was 2.0 fold.

How did the “Fold change” value turn out when B27 was run?
Its value is 2.1 fold.
